Results as given in patent US20170312343A1, “Uses of FAHD1” (UNIVERSITÄT INNSBRUCK, priority 2014, published 2017).

T1: FAHD1 (Homo sapiens, UniProt Q6P587)
T1 construct: His-tag (N); S-tag (N); made in house; host or cells: E. coli
T1 sequence (Q6P587 25-221): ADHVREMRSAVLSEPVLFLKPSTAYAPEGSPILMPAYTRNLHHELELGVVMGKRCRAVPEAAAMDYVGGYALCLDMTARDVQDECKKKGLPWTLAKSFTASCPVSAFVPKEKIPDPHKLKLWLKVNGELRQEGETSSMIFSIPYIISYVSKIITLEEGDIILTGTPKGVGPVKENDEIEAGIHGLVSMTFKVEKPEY

B1: fumarylacetoacetate hydrolase domain containing protein 1 (protein, UniProt Q6P587 25-221, looked up)
Oxaloacetate tautomerase …: ADHVREMRSAVLSEPVLFLKPSTAYAPEGSPILMPAYTRNLHHELELGVVMGKRCRAVPEAAAMDYVGGYALCLDMTARDVQDECKKKGLPWTLAKSFTASCPVSAFVPKEKIPDPHKLKLWLKVNGELRQEGETSSMIFSIPYIISYVSKIITLEEGDIILTGTPKGVGPVKENDEIEAGIHGLVSMTFKVEKPEY
notes: recombinant human wild-type FAHD1 expressed in E. coli

Experiments:
FAHD1 = target: T1, FAHD1; test: oxalate inhibitor assay (oxaloacetate decarboxylase assay); type: biochemical; conditions: purified recombinant wild-type FAHD1, room temperature, pH 7.4, absorbance 255 nm, FIG. 2C; read-out: IC50, inhibition of oxaloacetate decarboxylation by FAHD1
Experimental: (§1) N-terminally His- and S-tagged versions of human wild-type FAHD1 and a double mutant (Asp102Ala, Arg106Ala) were recombinantly expressed in E. coli and purified as reported previously (Pircher et al., J Biol Chem, 2011, 286(42)).
(§2) For measurement of oxaloacetate decarboxylase rates, 1 ml samples of 25 μM to 1 mM oxaloacetate in assay buffer (50 mM Tris-HCl, 100 mM KCl, 1 mM MgCl2, pH 7.4) containing purified FAHD1, FAHD1mut (3-60 μg, depending on substrate concentration) or no enzyme were prepared. Samples were incubated at room temperature and analysed in regular time intervals by measuring absorbance (infinite M200, Tecan) at 255 nm (ε=1070 M^−1 cm^−1) in disposable UV-cuvettes (Brand). Reaction mixtures containing no substrate were used as blank. For the oxalate inhibitor assay, the sample buffer was supplemented with 200 μM sodium oxalate. All rates were corrected for auto-decarboxylation under assay conditions.

[1] = oxaloacetate decarboxylase assay, photometric, enzyme kinetics of purified FAHD1; type: biochemical, human; conditions: purified wild-type enzyme, room temperature, pH 7.4, FIG. 2A
Experimental: as §1, §2

Molecule | IC50 (FAHD1) | Km [1] | Vmax of oxaloacetate degradation [1]
O=C([O-])C(=O)[O-].[Na+].[Na+] [oxalate, sodium oxalate] | ~20 µM | – | –
B1 | – | 32 µM | 0.21 µmol/min/mg
